B1: COV_2039 (antibody, V domains shown)
VH: QVQLVQSGAEVKKPGASVKVSCKVSGYMLIELSMHWVRQAPGKGLEWMGGFDPEDAETIYAQEFQGRVTMTEDTSTDTAYMELSSLRSEDTAVYYCTTGPAVTNRPADYWGPGTLVTVSS
VL: QSVLTQPPSVSGAPGQRVTISCTGSSSNIGASYDVHWYQQLPGTAPKLLIYANSNRPSGVPDRFSGSKSGTSASLAITGLQAEDEADYYCQSYDSSLSYSVVFGGGTKLTVL
notes: human IgG1
B2: COV_2025 (antibody, V domains shown)
VH: QVHLVQSGAEVKKPGASVKVSCKVSGYTLVELSVHWVRQAPAKGLEWIGGFDPEDGETIYAQKFQGRVTMTEDTSTDTAYMELTNLRSEDTAVYYCVTSQPFVSPNWFDPWGQGTLVTVSS
VL: QSALTQPASVSGSPGQSITISCTGTSRDVGAYNYVSWYQQHPGKAPKLMIYEVTTRPSGVSNRFSGSKSGNTASLTISGLQAEDEADYYCSSYTGSRTLVFGTGTKVTVL
notes: human IgG1
B3: COV_2137 (antibody, V domains shown)
VH: EVQLVESGGGLVKPGGSLRLSCAASGFTFSSYTMNWVRQAPGKGLEWVSSISSGSSFIYYADSLRGRFTISRDNAKNSLYLQMNSLRAEDTAVYYCARAPEPQSVIYAYWYFDLWGRGTLVTVSS
VL: QSALTQPASVSGSPGQSITFSCTGTSSDVGSYNLVSWYQQYPGKAPKLMIYEVNKRPSGVSNRFSGSKSGNTASLTISGLQAEDEADYYCCSYAGSSTFYVFGTGTKVTVLG
notes: human IgG1

Legend:
SARS-CoV-2 NTD (1-290) [1] = target: T1, SARS-CoV-2 NTD (1-290) (SARS-CoV-2, UniProt P0DTC2 14-290); assay: BLI, 1:1 model
T1 construct: range 1-290

[2] = target: T2, SARS-CoV-2 S on pseudovirions (Wuhan Hu-1 / IL1/2020, last 18 amino acids removed) (SARS-CoV-2, UniProt P0DTC2 14-1273); assay: cell-based or functional assay
[3] = target: SARS-CoV-1 spike antigens (bead panel) (SARS-CoV-1, UniProt P59594 14-1195); assay: multiplex bead assay
[4] = target: T2, SARS-CoV-2 S on pseudovirions (Wuhan …); assay: cell-based or functional assay; remark: listed apart in the source
SARS-CoV-2 NTD (1-290) [5] = target: T1, SARS-CoV-2 NTD (1-290); assay: multiplex bead assay
[6] = target: T3, MERS-CoV spike antigens (bead panel) (MERS-CoV, UniProt K9N5Q8 18-1296); assay: multiplex bead assay
T3 sequence: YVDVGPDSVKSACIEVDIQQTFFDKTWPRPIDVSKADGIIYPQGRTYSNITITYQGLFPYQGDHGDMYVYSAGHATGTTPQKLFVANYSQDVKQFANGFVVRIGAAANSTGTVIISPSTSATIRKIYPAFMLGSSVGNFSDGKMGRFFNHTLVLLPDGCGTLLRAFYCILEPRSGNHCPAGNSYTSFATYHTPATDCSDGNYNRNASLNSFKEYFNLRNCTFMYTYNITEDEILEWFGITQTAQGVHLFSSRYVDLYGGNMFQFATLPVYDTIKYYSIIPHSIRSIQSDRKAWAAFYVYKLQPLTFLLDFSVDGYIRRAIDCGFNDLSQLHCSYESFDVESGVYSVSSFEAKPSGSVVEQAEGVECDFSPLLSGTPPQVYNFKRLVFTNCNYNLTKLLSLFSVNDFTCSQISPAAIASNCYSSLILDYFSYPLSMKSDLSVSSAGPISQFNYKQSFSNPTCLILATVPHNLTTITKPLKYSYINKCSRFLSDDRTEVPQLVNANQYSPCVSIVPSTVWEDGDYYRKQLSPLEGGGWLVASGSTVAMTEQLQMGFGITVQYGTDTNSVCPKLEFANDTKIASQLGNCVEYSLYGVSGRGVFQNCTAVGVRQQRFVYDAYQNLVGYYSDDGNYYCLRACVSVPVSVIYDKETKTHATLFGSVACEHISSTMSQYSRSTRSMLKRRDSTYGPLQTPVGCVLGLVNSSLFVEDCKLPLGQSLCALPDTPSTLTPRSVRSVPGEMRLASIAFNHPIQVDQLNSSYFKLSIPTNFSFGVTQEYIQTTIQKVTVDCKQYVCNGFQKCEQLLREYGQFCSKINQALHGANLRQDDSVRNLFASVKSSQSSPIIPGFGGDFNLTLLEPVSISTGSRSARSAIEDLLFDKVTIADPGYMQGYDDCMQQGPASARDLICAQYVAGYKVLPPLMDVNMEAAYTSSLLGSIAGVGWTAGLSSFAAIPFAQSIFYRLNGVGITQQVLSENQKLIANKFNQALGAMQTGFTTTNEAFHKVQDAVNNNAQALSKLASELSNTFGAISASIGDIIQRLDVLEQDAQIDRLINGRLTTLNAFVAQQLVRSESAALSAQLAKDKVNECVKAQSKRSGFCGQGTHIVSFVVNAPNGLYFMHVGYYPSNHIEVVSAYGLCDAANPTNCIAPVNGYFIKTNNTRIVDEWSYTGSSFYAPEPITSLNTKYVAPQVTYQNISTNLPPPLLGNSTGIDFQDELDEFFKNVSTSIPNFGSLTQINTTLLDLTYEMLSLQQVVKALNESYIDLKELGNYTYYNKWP

Binder | Kd (SARS-CoV-2 NTD (1-290) [1]) [pM] | IC50, pseudotyped neutralization assay [2] [ng/mL] | binding result [3] | Mean IC50, pSV neutralization [4] [µg/ml] | Mean IC80, pSV neutralization [4] [µg/ml] | binding result (SARS-CoV-2 NTD (1-290) [5]) | binding result [6]
B1 | < 1 | 6 | no binding | 0.01 | 1.8 |  | 
B2 | < 1 | 9 | no binding | 0.02 | 0.49 |  | 
B3 |  |  | no binding |  |  | binds | no binding

Reference: patent US20240101645A1 (HENRY M JACKSON FOUNDATION FOR THE ADVANCEMENT OF MILITARY …, published 2024)
